Reference: the supplement of paper PMC9170038

tested on: MS2 coat protein; assay: apparent KD of MS2 coat protein; higher = weaker reporter binding; conditions: Eterna round: R107; input ligand: theophylline 20 uM
Method in brief: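 Apparent KD per design is the median of normalised cluster binding-curve fits. Designed RNA switches transcribed on-chip from Illumina sequencing clusters were titrated with SNAP-549-labelled MS2 coat protein in twofold steps from 0.7 or 1.5 nM to 3 µM, with 0.8–1.5 h down to 10–20 min per step. Buffer: 100 mM Tris-HCl pH 7.5, 80 mM KCl, 4 mM MgCl2, without or with constant ligand.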

Sequence	apparent KD of MS2 coat protein
AUGUCCUAAACGGCCGCCACUUACAUGAGGAUCACCCAUGUUUACCGAUAUGGUUGUUGCUUUCCAAGGACCGGGUUUAAUCUGC [theeternabot_exclusion_MS2_Trp_B_49]	14.9 nM
CAGCACAUGAGGAUCACCCAUGUGAGGGAUACCAGCUCAGGCGUGGGCCCUUGGCAGCUCUCUGGCUGACGAAAGUCAGCCUGUG [#20 SameState-TheophyllineA]	24.2 nM
UGUAUGUGAUCUGAUACCAGUCCAACUGGUAAAGCAUGAGGAACACCCAUGCAAAAUUGGGACCCUUGGCAGCAGAUCGCAUACU	255 nM
CGAAUACCAAUUGAUACCAGCAUGUUAACAUGAGGAUCACCCAUGUUAAGGAUAACAUAAUGCCCUUGGCAGCAACGUAAAUUCG [Aa]	22.9 nM
GGAUAGGACAGAAGGAGCGUGAGAUGCAAAGCUUCAUUCCUCACAUGAGGAUCACCCAUGUCACAGGUAGGUCGCUGUCCUAUCG [#19 Exclusion - Arginine B]	106 nM
GGGAGAUGAAAAGAUUGAGCUAAAACAGAAGGAGCGUGAAUUAACACAGGUAGGUCGCUGACAACAUGAGGAUCACCCAUGUAUU [Same State Arginine A GF4]	30.4 nM
AAAUGAGGAUCACCCAUGUAACAACGGGAAGGAGCGCCAAACAAGGCAGGUAGGUCGCCCACAUGAGGAUCACCCAUGUGUUGGG [Exclusion Arginine A GF 28]	105 nM
ACAUGAGGAUCACCCAUGUAGAAAGAUCCUCGAGGACCGGUACGGCCGCCACUCGAGUGGCAGUGUGUGCAGAAAAUGCGCGCGC	92.2 nM
AAGACAUGAGGAUCACCCAUGUCGUGUGAACGAGGACCGGUACGGCCGCCACUCGUUUGAAAAUAAACGAAUGCGGCCUGGGAAA [Exclusion Tryp A GF1]	13.4 nM
GUAUAUUAUAGAAGGAGCGUCGAAAAUGGGUAAACAUGAGGAUCACCCAUGUAAAGGGAACGACAGGUAGGUCGCUAUAAUAUAC [AstromonsSSArgB#14]	233 nM
UAAAUAUUACUGGGUAAGGUAUAAAUAGAUACCAGCCAGAUAACUGGCCCUUGGCAGCUAAACAUGAGGAUCACCCAUGUAUAAU [TheoAS 20 #OpenEnded #Ms2Late]	44 nM
AGACAUGAGGAUCACCCAUGUAGCAUGGAUACCAGAUGCAGAUUUAUCCCUUGGCAGCUGUGGUAAAGUGAUGCAUUGCUCCUAG [Exclusion - Theophylline A (Freestyle 6)]	31 nM
CCUGAUGAGUCGGCCGCCACUCCAGUUGUAUUACAGGUUUUCGUAGACAUGAGGAUCACCCAUGUGAGGACCGGGACACACACAG [theeternabot_exclusion_MS2_Trp_B_21]	23.8 nM
CGACUGUAAAGUCGACCGGUCAUCAAUAAUCGAGGACCGGUACGGCCGCCACUCGAUGUGAUUUCACAUGAGGAUCACCCAUGUA [Tryptophan A 17]	26.3 nM
UUGGGUUUGUGAAGGAGCGGGAAAGUUAUAUAGUUAAUCCUAACAUGAGGAUCACCCAUGUCCCAGGUAGGUCGCGCGGGUUUGG [12.P]	60.6 nM
UAAUGCAGGUCGGCCGCCACUACACACAUGAGGAUCACCCAUGUAGUUACUGGGUGAAGUGGCAGUAGGACCGGGACCUGCAUAA [Brourd01]	467 nM
CAGGUCAGGGCGGCCGCCACUGUGGCUACGGUACAUGAGGAUCACCCAUGUUUGUGGUUGAUCUACAGGACCGGGCCCUAACACG [Beabe]	214 nM
GUCUUGGGAUCGGCCGCCACUACAUGAGGAUCACCCAUGUGGACAAAUAGGGUUGUUAAGCUCGGUAGGACCGGGAUUCGGACAU [Oncetexeza]	41.1 nM
GGGACAUCGGGAAGGAGCGCAUCCAAACCACACAUGAGGAUCACCCAUGUAUAAAUAUGCAUGCAGGUAGGUCGCCCGGUGUCUC [Ersoatus]	131 nM

same assay, conditions: Eterna round: R107; input ligand: theophylline 2 mM

Sequence	apparent KD of MS2 coat protein
GUAUACAUGAGGAUCACCCAUGUACCAGAAGGAGCGCUGGAAACAGCAGGUAGGUCGCUGGUAGGUCCUCUAUCUAGACGUUCUU [EAA NP+V+V2 #6]	157 nM
AUACAUGAGGAUCACCCAUGUAUGGAUGAAGGAGCGACCAGAGGGUCAGGUAGGUCGCAUCACAUGAGGAUCACCCAUGUAGAAA [DOUBLE!!! :-D #11]	26.1 nM
GUCGUGGUCGGAAGGAGCGACAUGAGGAUCACCCAUGUCUCCCGUUAUGGGAGUUCCUUAGGUCAGGUAGGUCGCCGACUGCGGC [#1 Exclusion - Arginine B Attempt #23 (Inspired by Omei)]	276 nM
UACAUGAGGAUCACCCAUGUAUUGCCGGUACGAGGACCGGUACGGCCGCCACUCGGGACAUGAGGAUCACCCAUGUGCUGCUAUU [Same State Trypophan A GF 23]	42.4 nM
CGAAAGCUCCUUAUGUGCUUUCGACUGGAAGGAGCGAGCGAAAGCUCAGGUAGGUCGCCAGAAACAUGAGGAUCACCCAUGUAAU [(A)''-(M)'-(A)'(Arg1)-(Arg2)-(M1)-(M2)_Design9]	27.2 nM
UGUAUGUGAUCUGAUACCAGUCCAACUGGUAAAUCAUGAGGAUCACCCAUGGAAAAUUGGGACCCUUGGCAGCAGAUCGCAUACU	38.1 nM
GGACUAACCAGAAGGAGCGACACAAGCAGAAACUGCAAUCCUCCGCACGAGGAUCACCCGUGUCAGGUAGGUCGCUGGUUAGUCG [ArgBX 28]	96.8 nM
CUACAUUUGUAGAAACCGGUCAACAAUAUUCGAGGACCGGUACGGCCGCCACUCGUAUAAUUUAAUACAUGAGGAUCACCCAUGU [Tryptophan A 4]	17.1 nM
UUUUAGCAUCGAAGGAGCGCUGGUGAAACUGACUAUGGAACAUGAGGAUCACCCAUGUGCUAGCAGGUAGGUCGCGAUGCUAUUU [SSAB NP+V+V2 #10]	18.1 nM
AGUUCCAGGUCGGCCGCCACUGGCGUGGCCGGUCCUCGGACUUACAUGAGGAUCACCCAUGUGAACAGGACCGGGACCGCAUGGG [Exclusion Tryptophan B GF 25]	48.4 nM
GCUAGGUCUACGGCCGCCACUAGACGUGGGUAAGACAUGAGGAUCACCCAUGUACUACAGGCGCAUAGGACCGGGUAGACCUAGC [SSTB NP+V+V2 #11 Same Structure]	82.6 nM
CGUAUUGGAAACAGUACGAGUGAUCCGGUCCGAGGACCGGUACGGCCGCCACUCGAUAUAAAUAAACAUGAGGAUCACCCAUGUA [Ex Tryptophan A 12]	20.3 nM
CAUGACAUGAGGAUCACCCAUGUAUCCAGUCGAGGACCGGUACGGCCGCCACUCGGUGCCUUCAAAUUUACAGACAGGUGACAGG [theeternabot_sameState_MS2_Trp_A_30]	39.6 nM
UAAACUACACAUGAGGAUCACCCAUGUGGCCGAGGACCGGUACGGCCGCCACUCGUGUGUUAAUAAAAGAACUGCAAGGUUCUGU [Laorat]	552 nM
AUAACAUGAGGAUCACCCAUGUAAGCUGAAGGAGCGGACGAAAGUCCAGGUAGGUCGCAGCACUCCUUCAACAUGGGAGAGGGAG [(M1)-(M2)-(Arg1)-(Arg2)-(A)'-(M)'-(A)''_Design1]	72.5 nM
AUGUCCUAAACGGCCGCCACUUACAUGAGGAUCACCCAUGUUUACCGAUAUGGUUGUUGCUUUCCAAGGACCGGGUUUAAUCUGC [theeternabot_exclusion_MS2_Trp_B_49]	12.7 nM
UGUAUGUGAUCUGAUACCAGUCCAACUGGUAAAGCAUGAGGAACACCCAUGCAAAAUUGGGACCCUUGGCAGCAGAUCGCAUACU	34.6 nM
GGAUAGGACAGAAGGAGCGUGAGAUGCAAAGCUUCAUUCCUCACAUGAGGAUCACCCAUGUCACAGGUAGGUCGCUGUCCUAUCG [#19 Exclusion - Arginine B]	111 nM
GGGAGAUGAAAAGAUUGAGCUAAAACAGAAGGAGCGUGAAUUAACACAGGUAGGUCGCUGACAACAUGAGGAUCACCCAUGUAUU [Same State Arginine A GF4]	26.5 nM
AAAUGAGGAUCACCCAUGUAACAACGGGAAGGAGCGCCAAACAAGGCAGGUAGGUCGCCCACAUGAGGAUCACCCAUGUGUUGGG [Exclusion Arginine A GF 28]	166 nM
